# Experimental data: publication PMC12711580, “Florigen activation complex forms via multifaceted assembly in Arabidopsis” (Nature, 2025)
# B1: MBP–FDc(T282E), N-terminal MBP-fused, truncated FD (amino acids 215–285) [Arabidopsis thaliana] / itself (parent)
# chain: NRRHKRMIKNRESAARSRARKQAYTNELELEVAHLQAENARLKRQQDQLKMAAAIQQPKKNTLQRSSEAPF
# B2: MBP–FDc(T282E), N-terminal MBP-fused, truncated FD (amino acids 215–285) [Arabidopsis thaliana] / GRF7 (14-3-3ν), recombinant [Arabidopsis thaliana] (parent)
# chain 1: B1 chain
# chain 2: MSSSREENVYLAKLAEQAERYEEMVEFMEKVAKTVDTDELTVEERNLLSVAYKNVIGARRASWRIISSIEQKEESRGNDDHVSIIKDYRGKIETELSKICDGILNLLDSHLVPTASLAESKVFYLKMKGDYHRYLAEFKTGAERKEAAESTLVAYKSAQDIALADLAPTHPIRLGLALNFSVFYYEILNSPDRACSLAKQAFDEAISELDTLGEESYKDSTLIMQLLRDNLTLWNSDINDEAGGDEIKEASKHEPEEGKPAETGQ
# Variants of: B1
# Assay: SEC-MALS
# Details: with itself
row,Variant,screen value
1,NRRHKRMIKNRESAARSRARKQAATNELALEVAHLQAENARLKRQQDQLKMAAAIQQPKKNTLQRSSEAPF [chain 1 Y24A E29A],55 kD
2,NRRHKRMIKNRESAARSRARKQAYTNELELEVAHLQAENARLKRQQDQAKMAAAIQQPKKNTLQRSSEAPF [chain 1 L49A],55 kD
3,NRRHKRMIKNRESAARSRARKQAYTNELELEVAHLQAENARAKRQQDQLKMAAAIQQPKKNTLQRSSEAPF [chain 1 L42A],55 kD
4,NRRHKRMIKNRESAARSRARKQAYTNELELEVAHAQAENARLKRQQDQLKMAAAIQQPKKNTLQRSSEAPF [chain 1 L35A],55 kD
5,NRRHKRMIKNRESAARSRARKQAYTNEAELEVAHLQAENARLKRQQDQLKMAAAIQQPKKNTLQRSSEAPF [chain 1 L28A],55 kD

# Variants of: B2
# Assay: SEC-MALS
# Details: with GRF7 (14-3-3ν), free GRF7 peak marked 60 kD
row,Variant,screen value
1,chain 1 NRRHKRMIKNRESAARSRARKQAYTNELELEVAHAQAENARLKRQQDQLKMAAAIQQPKKNTLQRSSEAPF [chain 1 L35A],116 kD
2,chain 1 NRRHKRMIKNRESAARSRARKQAYTNELELEVAHLQAENARAKRQQDQLKMAAAIQQPKKNTLQRSSEAPF [chain 1 L42A],117 kD

# The remaining lines, values ahead:
row,screen value,Variant
1,168 kD,chain 1 NRRHKRMIKNRESAARSRARKQAYTNELELEVAHLQAENARLKRQQDQAKMAAAIQQPKKNTLQRSSEAPF [chain 1 L49A]
2,117 kD,chain 1 NRRHKRMIKNRESAARSRARKQAATNELALEVAHLQAENARLKRQQDQLKMAAAIQQPKKNTLQRSSEAPF [chain 1 Y24A E29A]
